{
  "source": "paper PMC8501954",
  "biological_target": "tRip1-402 (Plasmodium falciparum) (UniProt Q8IL48)",
  "assay": "competition EMSA",
  "conditions": "unmodified transcript; scale: fold difference from Sc tRNAPheGAA",
  "data": [
    {"substance": "minihelixPhe", "values": [
      {"measurement": "binding signal", "result": "< 2"}
    ]}
  ]
}
